The record followed here is patent publication US20210221894A1 (DRAGONFLY THERAPEUTICS, published 2021).

One experiment concerns the target T1, recombinant human DLL1 (human, UniProt O00548 18-540, limits assumed).
T1 sequence (looked up): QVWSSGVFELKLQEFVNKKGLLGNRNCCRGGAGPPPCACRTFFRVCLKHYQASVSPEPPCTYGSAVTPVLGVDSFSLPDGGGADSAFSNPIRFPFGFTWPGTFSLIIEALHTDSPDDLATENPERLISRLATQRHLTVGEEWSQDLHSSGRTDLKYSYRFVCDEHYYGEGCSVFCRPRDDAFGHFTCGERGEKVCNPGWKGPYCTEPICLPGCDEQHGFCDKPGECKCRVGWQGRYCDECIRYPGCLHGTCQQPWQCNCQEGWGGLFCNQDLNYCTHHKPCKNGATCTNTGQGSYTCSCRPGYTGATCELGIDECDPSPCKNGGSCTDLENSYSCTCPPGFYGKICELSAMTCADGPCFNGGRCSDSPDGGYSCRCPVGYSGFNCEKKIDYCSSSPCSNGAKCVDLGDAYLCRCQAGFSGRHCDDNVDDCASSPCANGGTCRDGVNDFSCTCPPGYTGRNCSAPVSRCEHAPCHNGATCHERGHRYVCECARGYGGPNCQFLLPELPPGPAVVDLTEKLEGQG
In words: ELISA, plate-bound recombinant human DLL1 (1 µg/mL), anti-mouse IgG-HRP/TMB, % of positive control max. The method, then:
(§1) To investigate the binding of anti-DLL3 antibodies to human DLL3, wells of high binding flat-bottom plates were coated with recombinant human DLL3 diluted to 0.5 μg/ml. To assess cross-reactivity of the antibodies to DLL1/DLL4, which are closely related family members to DLL3, plates were coated with recombinant human DLL1 diluted to 1 μg/ml, or human DLL4 diluted to 0.5 μg/ml. […] Binding was detected using anti-mouse IgG-HRP and 3,3′,5,5′-Tetramethylbenzidine (TMB) substrate. Signals were normalized to the corresponding positive control antibody.
On the technique in general: ELISA stands for enzyme-linked immunosorbent assay.

The target of experiment [1] is T2, recombinant human DLL3 (ELISA coat) (human, UniProt Q9NYJ7 27-492).
T2 sequence: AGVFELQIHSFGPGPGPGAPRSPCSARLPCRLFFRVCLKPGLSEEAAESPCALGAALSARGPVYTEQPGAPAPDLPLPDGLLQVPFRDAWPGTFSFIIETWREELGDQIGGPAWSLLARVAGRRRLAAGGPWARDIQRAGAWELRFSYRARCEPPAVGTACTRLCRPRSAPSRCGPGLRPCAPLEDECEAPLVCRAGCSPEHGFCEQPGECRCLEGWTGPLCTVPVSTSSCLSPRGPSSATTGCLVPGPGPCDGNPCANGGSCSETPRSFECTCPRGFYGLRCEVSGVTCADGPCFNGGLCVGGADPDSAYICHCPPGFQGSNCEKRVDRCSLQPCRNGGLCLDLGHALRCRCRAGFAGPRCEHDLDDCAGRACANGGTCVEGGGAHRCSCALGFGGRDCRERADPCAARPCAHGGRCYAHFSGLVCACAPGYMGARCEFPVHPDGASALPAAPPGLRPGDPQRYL
In words: ELISA, plate coated with recombinant human DLL3 0.5 µg/ml, anti-mouse IgG-HRP. The method, then:
as §1
Table 38 lists the calculated EC₅₀ based on the binding data from FIG. 24.

A further experiment has as its target recombinant human DLL4 (human, UniProt Q9NR61 27-524, limits assumed). In words: ELISA, plate-bound recombinant human DLL4 (0.5 µg/mL), anti-mouse IgG-HRP/TMB, % of positive control max. The method, then: as §1
The target of experiment [2] is T3, extracellular domain (ECD) of human DLL3 (AdipoGen Life Sciences) (human, UniProt Q9NYJ7 27-492).
T3 construct: Bought and further purified by size exclusion chromatography; also called hDLL3 ECD; DLL3 ECD
T3 sequence: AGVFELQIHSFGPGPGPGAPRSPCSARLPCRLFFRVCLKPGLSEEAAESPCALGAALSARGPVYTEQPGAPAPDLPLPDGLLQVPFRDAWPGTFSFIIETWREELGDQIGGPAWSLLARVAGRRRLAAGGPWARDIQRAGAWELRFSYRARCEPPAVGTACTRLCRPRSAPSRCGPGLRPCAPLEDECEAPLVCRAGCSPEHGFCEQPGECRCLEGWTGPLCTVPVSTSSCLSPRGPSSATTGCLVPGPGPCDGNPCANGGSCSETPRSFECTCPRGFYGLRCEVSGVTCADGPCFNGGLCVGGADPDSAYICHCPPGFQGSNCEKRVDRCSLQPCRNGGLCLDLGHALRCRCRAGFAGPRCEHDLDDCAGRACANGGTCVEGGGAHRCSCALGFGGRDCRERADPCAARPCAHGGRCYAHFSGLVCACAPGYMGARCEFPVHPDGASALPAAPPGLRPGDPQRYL
In words: SPR (Biacore 8K), 37 C, antibody captured on anti-mouse Fc, DLL3 ECD injected, 1:1 fit; approximate. The source says: (§2) The binding kinetics of different anti-DLL3 antibodies to recombinant proteins of different domains of human DLL3 were studied by surface plasmon resonance (SPR) using a Biacore™ 8K instrument. These anti-DLL3 antibodies were produced from mouse hybridomas, and each included a heavy chain variable region and light chain variable region described herein. Briefly, antibodies recognizing human IgG Fc and antibodies recognizing mouse IgG Fc were immobilized on different channels of a Biacore™ 8K chip to allow simultaneous analysis of human and murine anti-DLL3 antibodies. Murine anti-DLL3 antibodies were captured on the anti-mouse Fc channel of the Biacore chip. The human anti-DLL3 antibody from Stemcentrx (San Francisco, Calif.) was used as a control and was captured onto anti-human Fc channel of the Biacore™ chip. Different concentrations of DLL3 ECD, DLL3 N-terminal domain, EGF2-6, EGF3-6, EGF4-6, or EGF5-6 domains of DLL3 were injected. Experiments were performed at 37° C. Biacore™ 8K evaluation software was used for all data analysis. To obtain kinetic rate constants double-referenced data were fit to a 1:1 interaction model using Biacore™ 8K Evaluation software (GE Healthcare, Marlborough, Mass.). The equilibrium binding constant KD was determined by the ratio of binding rate constants kd/kₐ.
(§3) Table 36 lists the calculated binding kinetics (KD). […]
(In general: In SPR one partner is held on a chip, and binding of the other changes the refractive index at the surface.)

The target in experiment [3] is T3, extracellular domain (ECD) of human …. In words: SPR (Biacore 8K), 37 C, antibody captured on anti-mouse Fc, DLL3 ECD injected, 1:1 fit.
Excerpt: as §2
Table 36 lists the calculated binding kinetics (KD). […] Stemcentrx anti-DLL3 antibody was used as a control.

Experiment [4] shares this target. In words: SPR (Biacore 8K), 37 C, antibody captured on anti-mouse Fc, DLL3 ECD injected, 1:1 fit; off rate beyond instrument sensitivity.
Excerpt: as §2, §3

A value given as a limit tells only on which side of the number the result lay.

In general, EC50 refers to the concentration that produces a half-maximal response. For orientation: Kd means the constant that tells how readily two partners part at equilibrium. As usually defined, the kon is the second-order rate constant of association. A lower kon goes with slower complex formation. The term koff denotes the first-order rate constant of dissociation. A low value points to slow dissociation.

Chain of recombinant human DLL4 (Q9NR61 27-524 limits assumed): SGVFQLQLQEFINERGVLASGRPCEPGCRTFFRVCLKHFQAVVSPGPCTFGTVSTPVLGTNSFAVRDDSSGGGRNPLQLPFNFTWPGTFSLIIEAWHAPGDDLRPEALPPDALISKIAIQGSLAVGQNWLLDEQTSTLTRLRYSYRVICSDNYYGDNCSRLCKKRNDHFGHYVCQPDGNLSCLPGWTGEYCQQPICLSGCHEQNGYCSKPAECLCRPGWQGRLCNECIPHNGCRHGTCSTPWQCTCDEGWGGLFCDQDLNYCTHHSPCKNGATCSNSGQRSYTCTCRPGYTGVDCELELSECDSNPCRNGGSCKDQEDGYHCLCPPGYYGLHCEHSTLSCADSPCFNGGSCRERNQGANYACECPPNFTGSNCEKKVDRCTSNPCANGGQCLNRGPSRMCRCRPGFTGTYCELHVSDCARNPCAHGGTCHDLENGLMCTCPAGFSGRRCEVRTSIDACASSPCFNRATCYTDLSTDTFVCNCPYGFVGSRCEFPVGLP

B1: anti-DLL3 antibody clone 2H6 (antibody, V domains shown)
VH: QIQLVQSGPELKKPGETVKISCKASGYTFTTYGVNWVKQAPGKGLKWMGWINTYSGVPTYADDFKGRFAFSLETIATTAYLQINNLKNEDTATYFCARFGNYGFDYWGQGTTLTVSS
VL: DIVMTQSPSSLSVSAGEKVTMSCKSSQSLVNSGNQKNYLAWYQQKPGQPPKLLISGASTRESGVPDRFTGSGSGTDFTLTISSVQAEDLAVYYCQNDHNYPYTFGGGTKLEIK
notes: Murine antibody from a mouse hybridoma
Consider B1, for which the binding result with recombinant human DLL1 and with recombinant human DLL4 was “no binding” in each case. Besides, in experiment [1], the EC50 was 0.06 nM.

B2: anti-DLL3 antibody clone 2F7 (antibody, V domains shown)
VH: QVQLQQSGAELMKPGASVKLSCKATGYTFTGYWIDWIKQRPGHGLEWVGEILPGSDNINYNEKFRGKATFTADTSSNTAYIQLSSLTTEDSAIYFCARCGTGPWFTYWGQGTLVTVSA
VL: NIMMTQSPSSLAVSAGEKVTMSCKSSQSVLYSSNQKNYLAWYQQKPGQSPRLLIYWASTRASGVPDRFTGSGSGTDFTLTITNIQPEDLAVYYCHQFLSSTWTFGGGTKLEIK
notes: Murine antibody produced from a mouse hybridoma
In the case of B2, the binding result with recombinant human DLL1 and with recombinant human DLL4 was “no binding” throughout. In addition, in experiment [1], the EC50 was 0.3 nM. This molecule also gave a Kd in experiment [2] of under 0.011 nM. Further, the kon in experiment [3] came out at 72100 M⁻¹ s⁻¹. In experiment [4], this molecule came in with a koff of about 1.15e-06 s⁻¹.
